In US10894811B2, “Peptide inhibitors of calcium channels” (The University of North Carolina at Chapel Hill, priority 2016, dated 2021):
Entries after “also recorded” stand apart in the source; their conditions may differ.

Assays:
Orai1 [1] = target: T1, Orai1 (Homo sapiens, UniProt Q96D31); assay: Surface biotinylation / immunoblot of plasma membrane Orai1; format: cell-based; conditions: ASMC, after 4 h of SPLUNC1 exposure
Experimental: Surface biotinylation: hASMCs were treated with or without SPLUNC1 for 4 h. Cells were then washed with prechilled PBS^++ (phosphate buffered saline supplemented with 1 mM CaCl2 and 1 mM MgCl2), and then labeled with 0.5 mg/ml sulfo-NHS-biotin (Thermo) in borate buffer (85 mM NaCl, 4 mM KCl, 15 mM Na2B4O7, pH 9.0) while tumbling gently for 30 min on ice. hASMCs were incubated in PBS^++ buffer supplemented with 10% FBS for 20 min at 4° C. to quench free biotin. Cells were washed again three times with chilled PBS^++ and proteins were extracted as previously using lysis buffer (0.4% sodium deoxycholate, 1% NP-40, 50 mM EGTA, 10 mM Tris-Cl, pH 7.4) supplemented with 1×PIC. Total inputs were taken from whole cell samples representing 4% of total protein. Solubilized proteins were incubated with 100 μl of neutravidin beads (Pierce) overnight while rotating at 4° C. Samples were washed three times with lysis buffer. Bead-bound proteins were then eluted and SDS-polyacrylamide gels, and subjected to immunoblot analysis.

Orai1 [2] = target: T1, Orai1; assay: Fluorescent (confocal) microscopy of Orai1 localization; format: cell-based; design: expressed in transfected cells; conditions: ASMC treated with SPLUNC1
Experimental: Fluorescent microscopy: Human ASMs were grown on 25-mm glass coverslips for fluorescent imaging. Cells were transfected with the indicated fluorescent-labeled proteins. At 24 h post-transfection, cells were incubated with or without SPLUNC1 for 4 h, followed by methanol fixation and DAPI (1 μg/ml) staining for nucleus. For live cell imaging, cells were grown on 35-mm glass-bottom dishes (In Vivo Scientific) and transfected with the YFP-Orai1. At 24 h post-transfection, cells were incubated with SPLUNC1 and images were taken at indicated time point. All images were taken with a Leica TCS SP8 63× oil lens using the Leica Application Suite X software (Leica).

Orai1 [3] = target: T1, Orai1; assay: Surface labeling and ground state depletion super resolution microscopy; format: cell-based; design: expressed in transfected cells; conditions: ASMC plasma membranes, after 1 h incubation
Experimental: Surface labeling and super resolution microscopy: Human ASMs were grown on 22×22 mm^2 glass coverslips and transfected with the HA-Orai1. 24 h after transfection, cells were fixed with 4% paraformaldehyde (PFA) in PBS, followed by surface labeling with mouse anti-HA antibody (BioLegend) and Alexa 488 goat anti mouse antibody (Life Technologies) at 4° C. After washing with ice cold PBS for five times, cells were incubated with 5 μM SPLUNC1-DyLight 594 for 1 h at 4° C. prior to imaging.
Prior to mounting, 90 μl of oxygen depleting medium, β-Mercaptoethylamine (MEA) was added to the cavity of depression slides. Coverslips were then mounted on the depression slides and sealed with twinsil (Picodent). Super resolution images were captured with a commercial LEICA GSD super-resolution microscope. Ground state depletion (GSD) was performed using 488 nm and 642 nm m solid-state lasers. Samples were excited using 488 nm and 642 nm lasers and sample acquisition was increased with back-pumping using the 405 nm laser as per the manufacturer's instructions. The microscope was fitted with a 160× oil-immersion objective lens.

tracheal rings = assay: Myography of murine tracheal rings (ex vivo contraction); design: species or system mouse; conditions: pretreatment with recombinant SPLUNC1 protein for 1 h prior to agonist addition
Experimental: Myography of Murine Tracheal Rings: Tracheas were excised from 8-week old SPLUNC1 WT and KO mice. After removing excessive connecting tissue, the trachea was cut into ˜4-mm rings, mounted on a DMT 620M myography apparatus and allowed to rest in modified Ringer's solution (119 mM NaCl, 4.7 mM KCl, 1.17 mM MgSO4, 1.18 mM KH2PO4, 2.5 mM CaCl2, 25 mM NaHCO3, 0.027 mM EDTA, 5.5 mM glucose) with continuous oxygenation (95% O2/5% CO2) at 37° C. for 20 min with no applied tension. Optimal passive tension (1 mN) was then applied to the rings. The baseline force was then recorded after stable tension was achieved. The induced contractile force of each ring was assessed by measuring contraction stimulated by 60 mM KCl or […] Ach (unless indicated otherwise), respectively.

T1 sequence (Q96D31 whole entry): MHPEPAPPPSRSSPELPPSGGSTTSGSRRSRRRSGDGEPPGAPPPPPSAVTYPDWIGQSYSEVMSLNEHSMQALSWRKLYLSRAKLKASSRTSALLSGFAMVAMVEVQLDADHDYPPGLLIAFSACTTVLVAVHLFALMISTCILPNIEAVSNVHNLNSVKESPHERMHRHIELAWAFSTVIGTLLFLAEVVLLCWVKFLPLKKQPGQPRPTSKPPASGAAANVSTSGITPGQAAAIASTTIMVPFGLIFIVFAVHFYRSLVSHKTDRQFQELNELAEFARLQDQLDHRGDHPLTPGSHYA

B1: SPLUNC1: Short palate, lung and nasal epithelium clone 1, recombinant full length protein (protein, listed as Homo sapiens)
chain: MFQTGGLIVFYGLLAQTMAQFGGLPVPLDQTLPLNVNPALPLSPTGLAGSLTNALSNGLLSGGLLGILENLPLLDILKPGGGTSGGLLGGLLGKVTSVIPGLNNIIDIKVTDPQLLELGLVQSPDGHRLYVTIPLGIKLQVNTPLVGASLLRLAVKLDITAEILAVRDKQERIHLVLGDCTHSPGSLQISLLDGLGPLPIQGLLDSLTGILNKVLPELVQGNVCPLVNEVLRGLDITLVHDIVNMLIHGLQFVIKV
decrease of plasma membrane Orai1 levels (Orai1 [1]): ~50%
cytosolic Orai1 / Orai1 internalization (Orai1 [2]): increased; also recorded: Orai1 is internalized
co-localization of SPLUNC1 and Orai1 (Orai1 [3]): co-localize in ASMC plasma membranes
contraction (contractile force) of tracheal rings (tracheal rings): suppressed contraction
